Test results taken from the supplement of paper PMC9170038.

Assays:
MS2 coat protein [1] = experiment: apparent KD of MS2 coat protein, switch OFF state (with FMN for OFF switches, without FMN for ON switches); designed switch direction (-1 OFF switch, 1 ON switch): -1; higher = weaker reporter binding; settings: FMN input: 0 or 200 uM; Eterna round: R93 (includes R88 designs)
In short: (§1)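 SNAP-549-labelled MS2 coat protein was titrated onto designed RNA switches that had been transcribed on-chip from Illumina sequencing clusters. Amounts doubled from 0.7 or 1.5 nM to 3 µM in 100 mM Tris-HCl pH 7.5, 80 mM KCl, 4 mM MgCl2, with constant ligand or without. Apparent KD is the median per design of normalised cluster binding-curve fits.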

MS2 coat protein [2] = experiment: apparent KD of MS2 coat protein, switch ON state; designed switch direction (-1 OFF switch, 1 ON switch): -1; higher = weaker reporter binding; settings: FMN input: 0 or 200 uM; Eterna round: R93 (includes R88 designs)
In short: as §1

| Sequence | apparent KD of MS2 coat protein (MS2 coat protein [1]) [nM] | apparent KD of MS2 coat protein (MS2 coat protein [2]) [nM] |
| --- | --- | --- |
| AAAAAAGGAGGAUAUACGAACAUGUCAAAAGACGUGAAGGGACAUGAGGAUCACCCAUGUAGAAGGUUUAAAAA [JL Wide Open 32] | 15 | 48 |
| AGAAACCUAGGAUAUACAUGAGGAUCACCCAUGUAAAGAAAGAGGAGAGCCACAAGAAGUAGAAGGAGGAAGAA [JR_Exc003_Sub006] | 34.9 | 22.7 |
| AACUAGCUAGGAUAUACAUGAGGAUCACCCAUGUAAAAAAAAAAAAAAAAAUUUUUAUGUAGAAGGAGCUAGUA [Design 1 - Brourd - Exclusion 3] | 35.4 | 27.9 |
| AAAAAGUGAGGAUAUUCGGAAGGGAAAGCGCAAACCCAACCGAAGAAGGCACAUGAGGAUCACCCAUGUGGAAA [Ecls4-III 65% - Early + late G segment 2] | 26.8 | 32.1 |
| GAAAAGUCAGGAUAUACAGAAAAAAAAACGAAAAAAAAUCUGUAGAAGGGACAUGAGGAUCACCCAUGUUAAAA [Mat - Exclusion 4 - Mayanna - D125] | 24 | 46.9 |
| AUCUUGUCAGGAUAUCGUACAAUAUGGAAAACAUAGAGGUACGAGAAGGGACAUGAGGAUCACCCAUGUAAAAC [May 98] | 73.7 | 59.5 |
| AUAAAACAUGAGGAUCACCCAUGUGAGGAUAUGCGAAACAAACAAACAAACAAACAAAGCAGAAGGCACAAUAA [Amethyst 9] | 24.6 | 22.6 |
| AAAAAGUGAGGAUAUGAAAAUAAAAAAAAAAAAAAAAUAAAUCAGAAGGCACAUGAGGAUCACCCAUGUAAAAA [JR_Exc004_Sub1201] | 38 | 29.8 |
| AAAAAGUCAGGAUAUACAGGAGUGCGAAAGCACAAAAAAAAACAUGAGGAUCACCCAUGUAGAAGGGACAAGAA [Married to this design, 61% 6] | 33.1 | 52.7 |
| ACUAAUGAAGGAUAUACAAACAACAAACACUCAACACACACACAUGAGGAUCACCCAUGUAGAAGGUCAAACAU [JR_Exc002_Sub1204] | 18.2 | 19.2 |
| CUCAAGUUAGGAUAUUGAAGAAAAGAAGAGAAAGAAAAGAACAAGAAGGAACAUGAGGAUCACCCAUGUAAGAA [EteRNA is fun!] | 21.8 | 22.9 |
| AAGAAGGUAGGAUAUACUAGGGAAACUAAUGCAAAGAUAAAACAUGAGGAUCACCCAUGUAGAAGGGCCAGAAA [JR_Exc002_Sub017] | 65.5 | 40.8 |
| AGCUAGUCAGGAUAUACGAAAAUGUCAGAAGCUGAGAAGGGACAUGAGGAUCACCCAUGUAGAAGGGACUAGCA [Diamond 37] | 316 | 70.2 |
| AACAAACAUGAGGAUCACCCAUGUCAGGAUAUCGAAACAACAAACAACAAACAACAAACGAGAAGGGACAACAA [e1] | 23.8 | 19.2 |
| AAGAACUUAGGAUAUACAAAAUAAAAGAAAAGAAAGAAAGAACAUGAGGAUCACCCAUGUAGAAGGGAGAAGAA [Nimaatre Amenemhat III] | 29.8 | 55.9 |
| AAAGGACGAGGAUAUACAUGAGGAUCACCCAUGUAAAAAACAUAAUAAAAGAAUUUAUGUAGAAGGCGUCCAAA [69%, Moding Meechl, 1] | 17.1 | 18.1 |
| AAAGUGUCAGGAUAUGCUGCUCGUCACGAAAGUGAUGAGUAGCAGAAGGGACAUGAGGAUCACCCAUGUAAAGA [Exclusion 4.1d (Exclusion4-cac2 - mutated U at 5 and G at 4)] | 205 | 110 |
| AAGUAGGUAGGAUAUGCAUAGAUAUAUAUUCAUGUGGAACUACAUGAGGAUCACCCAUGUAGAAGGACCUAAUA [AJ 42] | 17.1 | 18.1 |
| AAAGUGUGAGGAUAUGCGAAAGGACACGAAAGUGACAAAGAGCAGAAGGUACAUGAGGAUCACCCAUGUAAAAA [milkweed 19] | 20.4 | 27.2 |
| CUCAUGUGAGGAUAUGUACAGAAAAAAAUGGGUGAAACUGUACAGAAGGCACAUGAGGAUCACCCAUGUGAAAA [EX4 378: S S Pseudoknot 3] | 21.1 | 26.1 |
| AAUAACUGAGGAUAUACUAAAGAAAUGAAAAGAAAUAAAGAACAUGAGGAUCACCCAUGUAGAAGGCAGAAUAA [Nuya] | 30.6 | 32 |
| GAAAAACAUGAGGAUCACCCAUGUGAGGAUAUGAACGAAAUAAAAUAAAAAUAAAAGUUCAGAAGGCACAAAAG [Mat - Exclusion 1 - Eli mod - D12] | 69.9 | 34 |
| AAGAACGAAGGAUAUACAUGAAAGAAAGAAAAGAAAAGAAAACAUGAGGAUCACCCAUGUAGAAGGUCGUAGAA [EteRNA is fun!] | 28.8 | 26.2 |

| Sequence | apparent KD of MS2 coat protein (MS2 coat protein [1]) [nM] | apparent KD of MS2 coat protein (MS2 coat protein [2]) [nM] |
| --- | --- | --- |
| AAAAAGCGAGGAUAUACAUGAGGAUCACCCAUGUCAAACGGUAAGACCGCAGGAAAAAGUAGAAGGCGCAAAAA [Exclusion3-02] | 96.8 | 65.9 |
| AACUAGCUAGGAUAUACAUGAGGAUCACCCAUGUAAAAAAAAAAAAAAAGAUUUAUAUGUAGAAGGAGCUAGUA [Design 3 - Brourd - Exclusion 3] | 61.8 | 31.6 |
| AUAAACGGAGGAUAUACAUGAGGAUCACCCAUGUAAAUAAAUAAAAGUUCCUCAAUAAGUAGAAGGUCGAAUAA [JR_Exc003_Sub011] | 13 | 12.8 |
| AACGAAUGAGGAUAUACAAACAGAAAAAUCAGACAUAACAGACAUGAGGAUCACCCAUGUAGAAGGCAUAAACA [JR_Exc002_Sub902] | 18.7 | 25.5 |
| GAAGAACAUGAGGAUCACCCAUGUGAGGAUAUACAGAAGGGAAUAAAAUAACCAGAAAGUAGAAGGCACAAGAA [Ex 1 May 40] | 45.7 | 35.1 |
| AAAAAACAUGAGGAUCACCCAUGUGAGGAUAUGGAAAGAAAAAAAAAGAAAGAAAAAACCAGAAGGCACAAAAA [Amethyst 30] | 23.8 | 42.8 |
| AUCAUGUUAGGAUAUUUAAGAAAAGAAAAGAAAGAAAAGAAAAAGAAGGAACAUGAGGAUCACCCAUGUAAGAA [EteRNA is fun!] | 22 | 27.5 |
| AAAAAGUAAGGAUAUAUAAAAAUAAAAAAUUAUGAUAAAAAACAUGAGGAUCACCCAUGUAGAAGGUACGAAAA [AJ 2] | 25.6 | 26.2 |
| AUAAUGUGAGGAUAUACAUGAGGAUCACCCAUGUAAUUAAAUAGGAGAGACACAAUUCGUAGAAGGUACAUUUA [JR_Exc003_Sub508] | 27.7 | 29.4 |
| UAUAUACAUGAGGAUCACCCAUGUCAGGAUAUGCGCCUAGAAUAUACAUAAGAUACAAGCAGAAGGGACACUAA [JR_Exc001_Sub206] | 49.9 | 57.3 |
| AUAAAACAUGAGGAUCACCCAUGUGAGGAUAUGCGAAAGAAAGAAAGAAAGAAAGAAAGCAGAAGGCACAAUAA [Amethyst 42] | 32.6 | 30.1 |
| AGCUAGUCAGGAUAUACAAAAAUGCUAGAAGACGUAAGGGAACAUGAGGAUCACCCAUGUAGAAGGGACUAGCA [Diamond 45] | 58.3 | 37.2 |
| AGAAAGUCAGGAUAUAUAGGAAAAAUAAAAAAAAUAAAACUAUAGAAGGGACAUGAGGAUCACCCAUGUUAAGA [Mat - Exclusion 4 - Mayanna - D133] | 17.8 | 34 |
| AAGAACGGAGGAUAUACAAAAUAAAAGAAAAGAAAGAAAGAACAUGAGGAUCACCCAUGUAGAAGGUCGAAGAA [Seth Meribre] | 20.8 | 14.9 |
| AACUGACAUGAGGAUCACCCAUGUCAGGAUAUGCUUCAUAAAAACAAACAAAAAUGAUGCAGAAGGGACAUGGG [Design 31 :P Sub-opt 7] | 39.5 | 17.1 |
| ACGUAGUCAGGAUAUACGAACAUGUCAAAAGACGUGAAGGGACAUGAGGAUCACCCAUGUAGAAGGGACUACGA [Mat - Exclusion 2 - JL mod - D5] | 129 | 43.1 |
| GAAAACAGAGGAUAUACAUGAUUAUGACGAAAGUCAUAAAAACAUGAGGAUCACCCAUGUAGAAGGCUGAAGAA [Meechl MS2 Ex2 2] | 164 | 130 |
| UAAAAACAUGAGGAUCACCCAUGUGAGGAUAUCGAAAAAAAAAAAUUAAAAAAGGAAGCGAGAAGGUACGGGAU [close, no cigar] | 33.2 | 33.3 |
| UAUGAGCGAGGAUAUGCUUGGGACUGUCGGAAUGUGGCGGGACAUGAGGAUCACCCAUGUAGAAGGCGCGAGCG [Harteesian Stick] | 126 | 77.9 |
| AAGAAGGGAGGAUAUACAUGAGGAUCACCCAUGUAAAAGAAAGAAAAGGGAAAGAAAAGUAGAAGGCCCAAGAA [Seqenenre Tao] | 40.2 | 36.9 |
| AAAAGUAGAGGAUAUACAUGAGGAUCACCCAUGUAGAAAGGAAGUGUAUAUAUGGCAUGUAGAAGGCUACAUGA [Banishment 8 - Jieux - Exclusion 3] | 34.2 | 27.4 |
| AAGAAGUUAGGAUAUGCUGCUCGUCACAAAAGUGAUGAGUAGCAGAAGGGACAUGAGGAUCACCCAUGUAAAGA [JL eternac mod 5] | 24.1 | 36.7 |
